This note sets out measurements from publication PMC4231161.

Assay [1] deals with gliding-associated protein GAP45 (Toxoplasma gondii (endogenous in tachyzoites)) (UniProt Q7Z289). Kind of assay: co-IP; polyclonal anti-MLC1 or anti-GAP45 antibodies on [35S]-labelled wild type (RH) and MyoA-KO parasites and on MyoA-iKO parasites +/- ATc, Triton X-100 lysate, autoradiography, bands quantified with ImageJ.
Assay [2] concerns the target myosin light chain 1 (MLC1) (Toxoplasma gondii (endogenous in tachyzoites)). Described as above.

On to myosin C (MyoC) (natural protein), for which the more MyoC co-precipitated in the absence of MyoA than in its presence in assay [1] and in assay [2] was 50% in each case.
